In patent US20240252606A1 (CHANGCHUN BCHT BIOTECHNOLOGY, published 2024):

B1: lysine-modified norovirus capsid P protein PP-3K (other)
chain: MGKPFSVPILTVEEMTNSRFPIPLEKLFTGPSSAFVVQPQNGRCTTDGVLLGTTQLSPVNICTFRGDVTHIAGKTQNYTMNLASQNWNNYDPTEEIPAPLGTPDFVGRIQGVLTQTTRRDGSTRGHKATVSTGSVHFTPKLGSVQFSTDTSKNDFETGQNTRFTPVGVVQDGKSTTHQNEPQQWVLPDYSGRDSHNVHLAPAVAPTFPGEQLLFFRSTMPGCSGYPNMNLDCLLPQEWVQHFYQESAPAQSDVALLRFVNPDTGRVLFECKLHKSGYVTVAHTGQHDLVIPPNGYFRFDSWVNQFYTLAPMGNGAGRRRAL
notes: self-assembles into dodecamers and tetracosamers
B2: cysteine-modified norovirus capsid P protein PP-3C (other)
chain: MGKPFSVPILTVEEMTNSRFPIPLEKLFTGPSSAFVVQPQNGRCTTDGVLLGTTQLSPVNICTFRGDVTHIAGCQNYTMNLASQNWNNYDPTEEIPAPLGTPDFVGRIQGVLTQTTRRDGSTRGHKATVSTGSVHFTPKLGSVQFSTDTCNDFETGQNTRFTPVGVVQDCSTTHQNEPQQWVLPDYSGRDSHNVHLAPAVAPTFPGEQLLFFRSTMPGCSGYPNMNLDCLLPQEWVQHFYQESAPAQSDVALLRFVNPDTGRVLFECKLHKSGYVTVAHTGQHDLVIPPNGYFRFDSWVNQFYTLAPMGNGAGRRRAL
notes: as for B1

Molecular target: the molecule itself
Assay: native gel electrophoresis, self-assembly

Protein	binding result
B1	binds
B2	binds
